Results taken from PMC10070233 (Cellular and Molecular Life Sciences: CMLS, 2023).
Each block holds one binder with its values, some of them ahead of it.

What was measured:
Test in all cases: BLI; kinetics: FGFRs-Fc (25 μg/mL) immobilised on Protein-A sensors, galectins 0.2-6 μM; heterogeneous ligand (2:1) model
Settings in all cases: both partners purified
[1] = biological target: T1, extracellular region of FGFR1 fused to the Fc fragment of human IgG1 (human, UniProt P11362 22-376, N-glycosylated (eight N-glycosylation sites))
T1 construct: FGFR1, extracellular region with domains D1, D2 and D3; also called FGFR1-Fc; FGFR1.Fc; source: CHO cells, purified (Protein A Sepharose)
T1 sequence (looked up): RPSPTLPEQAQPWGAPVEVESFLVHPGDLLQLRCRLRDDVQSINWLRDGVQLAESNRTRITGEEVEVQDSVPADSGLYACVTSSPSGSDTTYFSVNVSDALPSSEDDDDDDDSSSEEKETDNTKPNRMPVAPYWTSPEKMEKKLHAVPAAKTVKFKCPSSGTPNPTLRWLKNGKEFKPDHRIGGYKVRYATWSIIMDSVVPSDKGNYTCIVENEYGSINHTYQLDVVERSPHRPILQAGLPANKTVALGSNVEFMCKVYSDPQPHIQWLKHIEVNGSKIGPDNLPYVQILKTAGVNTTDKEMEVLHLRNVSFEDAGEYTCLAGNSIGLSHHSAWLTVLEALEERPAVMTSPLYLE

[2] = biological target: T2, extracellular region of FGFR2 fused to the Fc fragment of human IgG1 (human, UniProt P21802 22-377, N-glycosylated (eight putative N-glycosylation sites))
T2 construct: FGFR2, extracellular region; also called FGFR2-Fc; source: CHO cells, purified (Protein A Sepharose)

[3] = biological target: T3, extracellular region of FGFR3 fused to the Fc fragment of human IgG1 (human, UniProt P22607 23-375, N-glycosylated (six putative N-glycosylation sites))
T3 construct: FGFR3, extracellular region; also called FGFR3-Fc; source: CHO cells, purified (Protein A Sepharose)
T3 sequence (looked up): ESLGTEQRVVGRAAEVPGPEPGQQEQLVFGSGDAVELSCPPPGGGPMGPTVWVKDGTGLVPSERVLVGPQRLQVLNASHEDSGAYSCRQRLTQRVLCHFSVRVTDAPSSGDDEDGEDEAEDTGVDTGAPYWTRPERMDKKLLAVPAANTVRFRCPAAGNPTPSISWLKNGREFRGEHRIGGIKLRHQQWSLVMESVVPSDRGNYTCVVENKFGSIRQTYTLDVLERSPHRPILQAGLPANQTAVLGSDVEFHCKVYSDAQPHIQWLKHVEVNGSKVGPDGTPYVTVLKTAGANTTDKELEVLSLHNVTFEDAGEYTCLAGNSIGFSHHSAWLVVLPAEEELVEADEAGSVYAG

[4] = biological target: T4, extracellular region of FGFR4 fused to the Fc fragment of human IgG1 (human, UniProt P22455 22-369, N-glycosylated (five putative N-glycosylation sites))
T4 construct: FGFR4, extracellular region; also called FGFR4-Fc; source: CHO cells, purified (Protein A Sepharose)
T4 sequence (looked up): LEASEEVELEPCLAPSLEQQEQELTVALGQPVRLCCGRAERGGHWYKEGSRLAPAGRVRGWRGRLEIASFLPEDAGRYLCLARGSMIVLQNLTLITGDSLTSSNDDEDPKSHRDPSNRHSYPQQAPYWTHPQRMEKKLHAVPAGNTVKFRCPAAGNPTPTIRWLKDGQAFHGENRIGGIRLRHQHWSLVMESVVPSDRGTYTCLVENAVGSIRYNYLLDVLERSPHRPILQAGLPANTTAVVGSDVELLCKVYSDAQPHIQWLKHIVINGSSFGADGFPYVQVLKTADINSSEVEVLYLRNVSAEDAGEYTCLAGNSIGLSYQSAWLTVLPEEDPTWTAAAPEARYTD

T2 sequence (P21802 22-377): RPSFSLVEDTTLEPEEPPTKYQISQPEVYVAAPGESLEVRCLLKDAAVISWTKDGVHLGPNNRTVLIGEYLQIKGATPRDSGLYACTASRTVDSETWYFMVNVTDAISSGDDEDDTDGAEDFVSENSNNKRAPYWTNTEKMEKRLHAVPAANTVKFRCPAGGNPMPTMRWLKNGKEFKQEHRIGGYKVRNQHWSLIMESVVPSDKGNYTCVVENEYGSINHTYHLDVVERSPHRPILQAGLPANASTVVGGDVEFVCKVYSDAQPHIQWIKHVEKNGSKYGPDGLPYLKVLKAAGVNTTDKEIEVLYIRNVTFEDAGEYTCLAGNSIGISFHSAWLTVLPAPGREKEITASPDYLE

KD1 [1]: 0.95 µM
KD2 [1]: 194 nM
Koff1 [1]: 0.0225 s⁻¹
Koff2 [1]: 0.000766 s⁻¹
Kon1 [1]: 25200 M⁻¹ s⁻¹
Kon2 [1]: 8820 M⁻¹ s⁻¹
KD1 [2]: 3.8 µM
KD2 [2]: 141 nM
Koff1 [2]: 0.0312 s⁻¹
Koff2 [2]: 0.00493 s⁻¹
Kon1 [2]: 13200 M⁻¹ s⁻¹
Kon2 [2]: 35100 M⁻¹ s⁻¹
KD1 [3]: 174 nM
KD2 [3]: 63 nM
Koff1 [3]: 0.0289 s⁻¹
Koff2 [3]: 0.000855 s⁻¹
Kon1 [3]: 167000 M⁻¹ s⁻¹
Kon2 [3]: 14500 M⁻¹ s⁻¹
KD1 [4]: 24.3 nM
KD2 [4]: 249 nM
Koff1 [4]: 0.000929 s⁻¹
Koff2 [4]: 0.0161 s⁻¹
Kon1 [4]: 38700 M⁻¹ s⁻¹
Kon2 [4]: 65100 M⁻¹ s⁻¹
B1: galectin-8 (natural protein, human, UniProt O00214 1-317, looked up)
chain: MMLSLNNLQNIIYNPVIPFVGTIPDQLDPGTLIVIRGHVPSDADRFQVDLQNGSSMKPRADVAFHFNPRFKRAGCIVCNTLINEKWGREEITYDTPFKREKSFEIVIMVLKDKFQVAVNGKHTLLYGHRIGPEKIDTLGIYGKVNIHSIGFSFSSDLQSTQASSLELTEISRENVPKSGTPQLRLPFAARLNTPMGPGRTVVVKGEVNANAKSFNVDLLAGKSKDIALHLNPRLNIKAFVRNSFLQESWGEEERNITSFPFSPGMYFEMIIYCDVREFKVAVNGVHSLEYKHRFKELSSIDTLEINGDIHLLEVRSW
notes: galectin-8, human; the C-CRD construct ends at Trp317, which fits the form of 317 residues; also called gal-8; full-length galectin-8; source: E. coli BL21 CodonPlus(DE3)-RIL, purified (Ni-NTA); not shown: His tag, N-terminal, kept

KD1 [1]: 2.6 µM
KD2 [1]: 17 nM
Koff1 [1]: 0.164 s⁻¹
Koff2 [1]: 0.000194 s⁻¹
Kon1 [1]: 165000 M⁻¹ s⁻¹
Kon2 [1]: 429000 M⁻¹ s⁻¹
B2: N-terminal carbohydrate recognition domain of galectin-8 fused to the AviTag (domain or fragment, human, UniProt O00214 1-152, looked up)
chain: MMLSLNNLQNIIYNPVIPFVGTIPDQLDPGTLIVIRGHVPSDADRFQVDLQNGSSMKPRADVAFHFNPRFKRAGCIVCNTLINEKWGREEITYDTPFKREKSFEIVIMVLKDKFQVAVNGKHTLLYGHRIGPEKIDTLGIYGKVNIHSIGFS
notes: galectin-8, human, N-CRD, residues Met1-Ser152; also called gal-8N-CRD; gal-8_(N-CRD); source: E. coli BL21(DE3) pLysS, purified (Ni-NTA); not shown: AviTag, C-terminal, kept
